US20180009892A1 (EUREKA THERAPEUTICS, published 2018)

B1: Antibody 601-65 (antibody, V domains shown)
VH: QVQLQQSGPGLVKPSQTLSLTCAISGDSVSSNSATWNWIRQSPSRGLEWLGRTYYRSKWYNDYAVSVKSRIIINPDTSKNQFSLQLNSVTPEDTAVYYCARGVRAFDIWGQGTTVTVSS
VL: QSVLTQPPSVSGTPGQRVTIFCSGGSNNIGRSSVYWYRQAAGTAPKLLIYKTDQRPSGVPDRFAASKSGASASLAISGLRSEDEADYHCATWDDSLSAVVFGGGTKLTVL
B2: P601-37 (scFv, V domains shown)
VH: EVQLVQSGAEVKKPGASVKVSCKASGYTFNNYGFSWVRQAPGQGLEWMGWISVYNGNTNYAQKLQGRVTMTTDTSTSTAYMELRSLRSDDTAVYYCARDYYSDSSGYWDDAFDIWGQGTMVTVSS
VL: AIRMTQSPSSLSASVGDRVTITCQASQDISNYLNWYQQKPGKAPKLLIYAASSLQSGVPSRFSGSGSGTDFTLTISSLQPEDFATYYCQQSYSTPFTFGPGTKVDIK
B3: P601-43 (scFv, V domains shown)
VH: QVQLQQSGAEVKKPGASVRVSCKASGYSFGNNGITWVRQAPGQGLEWMGWISTYNGNTNYAQKLQGRVTMTTDTSTSTAYMELRSLRSDDTAVYYCARDYYSDSSGYWDDAFDIWGQGTTVTVSS
VL: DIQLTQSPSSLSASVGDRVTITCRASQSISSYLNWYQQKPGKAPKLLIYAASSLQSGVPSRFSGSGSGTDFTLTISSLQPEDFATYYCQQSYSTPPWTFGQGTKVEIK
B4: Antibody 601-87 (antibody, V domains shown)
VH: QVQLQESGPGLVKSSETLSLTCTVSGGSMNNYYWSWIRQPAGKGLEWMGRIYSSGSTNYNPALKSRVTMSVDTSKNQFSLNLSSVTAADTAIYYCARASWSGTYWALFDYWGQGTLVTVSS
VL: ETTLTQSPAFMSATPGDKVNISCKASQDIDDDLNWYQQKPGEAPILIIQEATTLVPGIPPRFSGSGFGTDFTLTINSMQSEDVAYYFCLQHDNFPPTFGQGTKVEIK
B5: Antibody 601-149 (antibody, V domains shown)
VH: EAQLVESGGGLVKPGGSLRLSCAASGFTFSDYYMGWVRQAPGKGLKWLSYISDRAHTIYDTDSVKGRFTISRDDAKSSLYLRMNNLRVEDTAVYYCARAVGAGEGFDYWGQGTLVTVSS
VL: DIQLTQSPSSLSASVGDRVTITCQASQDVRNYLNWYQQKPGKAPNLLIYDATNLESGVPSRFSGSGSGTDFTFTISSLQPEDFATYYCQQYDNLPLSFGGGTKVEIK
B6: P601-28 (scFv, V domains shown)
VH: EVQLVQSGGDLVQPGGSLRLSCAASGFTFSSYSMNWVRQAPGKGLEWVSSISSSSSYIYYADSVKGRFTISRDNAKNSLYLQMNSLRAEDTAVYYCARGLGGWTHDAFDIWGQGTTVTVSS
VL: QSALTQPASVSGSPGQSITISCTGTSSDVGGYNYVSWYQQHPGKAPKLMIFDVSNRPSGVSNRFSGSKSGNTASLTISGLQAEDEADYYCSSYTSSSTLFGGGTKLTVL
B7: Antibody 601-9 (antibody, V domains shown)
VH: QLQLQESGPGVVKPSGTLSLTCTVSGGSISRSDGYWGWVRQPPGKGLEWIGSIYDTGTTYYSPSLKSRLIISVDTSKNQFSLTLNSVTAADTAVYYCASMGGLRSSSSDAFHTWGPGTMVTVSS
VL: QSVLTQPPSVSVAPGETARITCGGTNIGSESVHWYQQRPGQAPVLVVYDDTDRPSGIPERFSGSNSGNTATLTISRVEAGDGADYYCQVWDSVSDRYVFGTGTKVTVL
B8: P601-14 (scFv, V domains shown)
VH: QVQLVQSGAEVKKPGESLKISCKDSGYSFTNYWLGWVRQMPGKGLEWMGIIYPGDSDTRYSPSFRGQVTISADKSISTAYLQWSSLKASDTAMYYCARLNLATHTAFDIWGQGTTVTVSS
VL: QSVLTQPASVSGSPGQSITISCTGTSSDVGGYNYVSWYQQHPGKAPKLMIYDVSNRPSGVSNRFSGSKSGNTASLTISGLQAEDEADYYCSSYTSSSTLWVFGGGTKLTVLG
B9: P601-57 (scFv, V domains shown)
VH: EVQLVQSGAEVKKPGSSVKISCKASGGAFTNFGISWVRQAPGQGLEWMGWISTYNSETNYAQKLQGRVTMTTDTSTSTAYMELRSLRSDDTAVYYCARDYYSDSSGYWDDAFDIWGQGTLVTVSS
VL: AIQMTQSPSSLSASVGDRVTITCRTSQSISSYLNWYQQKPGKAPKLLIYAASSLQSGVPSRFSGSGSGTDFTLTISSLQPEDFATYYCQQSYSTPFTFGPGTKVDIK
B10: Antibody 601-4 (antibody, V domains shown)
VH: EVQLVQSGPGLVKPSGTLSLTCAVSGGSISSSNWWSWVRQPPGKGLEWIGEIYHSGSTNYNPSLKSRVTISVDKSKNQFSLKLGSVTAADTATYYCARDLWLGEWDLWGQGTLVTVSS
VL: QSVLTQPPSASGAPGQRVTISCSGGISNVGTNGVNWYQHLPGTAPKLLVDAMNQRPSGVPDRFSGSRSGTSGSLAITGLRSEDEADYYCATWDDSLSGVLFGGGTKLTVLG
B11: P601-51 (scFv, V domains shown)
VH: not shown
VL: QSALTQPASVSGSPGQSITISCTGTSSDFGDYDYVSWYQQHPGKAPKLMIYDVSDRPSGVSNRFSGSKSGNTASLTISGLQAEDEADYFCSSFTTSSTLVFGGGTKLTVLG
B12: Antibody 601-66 (antibody, V domains shown)
VH: QVQLVQSGAEVKEPGASVKVSCKASGYTFRNSGITWVRQAPGQGLEWMGWINPNSGGAMYVDNFQGRATMTRDTSINTAYMELRSLSSDDTAVYYCARGMADLIDVFDIWGQGTLVTVSS
VL: TQPALTQPASVSGSPGQSITISCTGTSSDFGDYDYVSWYQQHPGKAPKLMIYDVSDRPSGVSNRFSGSKSGNTASLTISGLQAEDEADYFCSSFTTSSTLVFGGGTKLTVL
B13: Antibody 601-70 (antibody, V domains shown)
VH: EVQLVQSGAELKKPGSSVRVSCKTSGGSFKTHGISWVRQAPGQGLEWMGWINPNSGGALYVDNFQGRATMTRDTSINTAYMELRSLSSDDTAVYYCARGMADLIDVFDIWGQGTMVTVSS
VL: TQPALTQPASVSGSPGQSITISCTGTSSDFGDYDYVSWYQQHPGKAPKLMIYDVSDRPSGVSNRFSGSKSGNTASLTISGLQAEDEADYFCSSFTTSSTLVFGGGTKLTVL
B14: P601-1 (scFv, V domains shown)
VH: EVQLVESGGGLVKPGGSLRLSCAASGFTFSDYYMSWIRQAPGKGLEWVSYISDSTNTIYYADSVKGRFTVSRDNPKNSLYLQMISLRAEDTAVYYCARAVGAGEGFDHWGQGTLVTVSS
VL: not shown
B15: Antibody 601-147 (antibody, V domains shown)
VH: QMQLVQSGAEVKKPGASVKVSCKASGYTFSRYYIHWVRQAPGQGLEWMGLINPGGGSTNYAQKFQGRVTMTRDTSTNTVYLELSSLRSDDTAVYYCARDYGTIDARRFDFWGQGTLVTVSS
VL: QSALTQPPSASGTPGQRVTISCSGSSSNIGSNYVYWYQQLPGTAPKLLIYRNNQRPSGVPDRFSGSKSGTSASLAISGLRSEDEADYYCAAWDDSLSGYVFGTGTKVTVL
B16: Antibody 601-50 (antibody, V domains shown)
VH: QVQLQQSGAEVKKPGASVKVSCKASGYTFSRYYIHWVRRAPGQGLEWMGLINPGGGSTNYAQKFQGRVTMTRDTSTNTVYLELSSLRSDDTAVYYCARDYGTIDARRFDFWGQGTLVTVSS
VL: QSALTQPPSASGTPGQRVTISCPGSSSNIGSNYVYWYQQLPGTAPKLLIYRNNQRPSGVPDRFSGSKSGTSATLGITGLQTGDEADYYCGTWDSSLSAYVFGTGTKVTVL

Tests used:
[1] = molecular target: T1, ROR1 extracellular domain Fc-fusion, dimer (human, UniProt Q01973 30-406); experiment: SPR, immobilised ROR1 dimer, antibody injected, 1:1 model
T1 construct: also called ROR1 dimer; hROR1 dimeric ECD-Fc fusion protein; not shown: Fc part
T1 sequence (Q01973 30-406): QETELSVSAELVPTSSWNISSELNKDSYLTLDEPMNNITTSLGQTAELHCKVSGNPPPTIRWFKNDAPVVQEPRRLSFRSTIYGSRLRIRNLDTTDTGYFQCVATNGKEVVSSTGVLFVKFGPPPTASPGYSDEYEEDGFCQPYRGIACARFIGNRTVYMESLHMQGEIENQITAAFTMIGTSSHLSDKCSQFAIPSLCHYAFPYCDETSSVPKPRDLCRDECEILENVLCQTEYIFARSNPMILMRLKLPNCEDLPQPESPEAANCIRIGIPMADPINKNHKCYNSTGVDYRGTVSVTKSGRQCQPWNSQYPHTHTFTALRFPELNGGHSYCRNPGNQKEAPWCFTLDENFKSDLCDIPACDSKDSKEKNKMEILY
Experimental: (§1) The binding affinities of ROR1 extracellular domain dimer and monomer for anti-ROR1 antibodies were determined by surface plasmon resonance (SPR). ROR1 extracellular domain Fc-fusion, “dimer,” and ROR1 extracellular domain Fc fusion:Fc heterodimer, “monomer,” are the dimer and monomeric forms of ROR1 used for affinity analysis, respectively. Briefly, ROR1 dimer and monomer were directly immobilized to a CM4 chip using an amine coupling kit and 100 mM ethylenediamine in 100 mM Sodium Borate buffer, pH 8.0 as the blocking reagent. Approximately 100-150 RU of ROR1 dimer and monomer were immobilized on separate flow cells and an un-derivatized flow cell was used as a reference control. […] Dissociation was followed for 180 seconds. The association constant, dissociation constant, and affinity of each anti-ROR1 antibody was calculated using the Biacore T200 Evaluation Software 1:1 binding model.
(§2) Sensorgrams were normalized to 100 RU using the “binding stability point” at the end of the association phase but before the dissociation phase.

[2] = molecular target: T2, ROR1 extracellular domain Fc fusion:Fc heterodimer, monomer (human); experiment: SPR, immobilised ROR1 monomer, antibody injected, 1:1 model
T2 construct: Heterodimer of one ROR1 ECD-Fc chain and one Fc chain; also called ROR1 monomer; hROR1 monomeric ECD-Fc fusion protein; not shown: Fc part; Fc alone
T2 sequence (Q01973 30-406, one chain of several): as the sequence (Q01973 30-406) above
Experimental: as §1, §2

[3] = molecular target: T1, ROR1 extracellular domain Fc-fusion, …; experiment: SPR, immobilised ROR1 dimer, antibody injected, 1:1 model; apparent affinity
Experimental: as §1, §2

mouse ROR1-ECD = molecular target: T3, mouse ROR1-ECD (mouse, UniProt Q9Z139 30-406); experiment: phage antibody protein ELISA
T3 construct: extracellular domain; also called mROR1
T3 sequence (Q9Z139 30-406): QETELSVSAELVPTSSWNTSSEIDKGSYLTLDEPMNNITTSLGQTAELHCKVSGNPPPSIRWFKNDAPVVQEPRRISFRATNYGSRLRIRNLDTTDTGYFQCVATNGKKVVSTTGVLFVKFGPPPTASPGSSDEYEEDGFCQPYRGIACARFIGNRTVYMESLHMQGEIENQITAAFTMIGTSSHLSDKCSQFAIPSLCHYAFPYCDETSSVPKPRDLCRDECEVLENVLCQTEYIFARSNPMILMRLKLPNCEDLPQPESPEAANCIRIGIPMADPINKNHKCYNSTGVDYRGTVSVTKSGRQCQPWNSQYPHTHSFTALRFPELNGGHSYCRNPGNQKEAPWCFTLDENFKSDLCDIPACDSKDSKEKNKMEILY
Experimental: (§3) Binding specificities of the 45 phage antibodies were determined by protein ELISA against human ROR1-ECD, human ROR2-ECD and mouse ROR1-ECD (FIG. 12).

human ROR2-ECD = molecular target: T4, human ROR2-ECD (human, UniProt Q01974 34-403); experiment: phage antibody protein ELISA
T4 construct: extracellular domain; also called hROR2
T4 sequence (Q01974 34-403): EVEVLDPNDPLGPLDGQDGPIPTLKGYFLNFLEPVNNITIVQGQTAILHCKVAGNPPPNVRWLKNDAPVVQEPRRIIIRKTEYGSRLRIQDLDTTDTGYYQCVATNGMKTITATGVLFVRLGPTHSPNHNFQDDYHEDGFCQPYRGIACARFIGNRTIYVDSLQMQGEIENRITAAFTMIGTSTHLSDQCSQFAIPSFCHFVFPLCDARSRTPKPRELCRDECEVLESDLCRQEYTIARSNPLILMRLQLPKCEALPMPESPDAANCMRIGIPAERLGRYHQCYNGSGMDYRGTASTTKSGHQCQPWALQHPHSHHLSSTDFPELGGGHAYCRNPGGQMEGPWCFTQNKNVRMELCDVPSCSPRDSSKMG
Experimental: as §3

[4] = molecular target: T5, human ROR1 extracellular domain (ECD) protein (human, UniProt Q01973 30-406); experiment: competitive phage ELISA: soluble ROR1 against ROR1-coated plate
T5 construct: also called hROR1-ECD; human ROR1-ECD
T5 sequence (Q01973 30-406 limits assumed): as the sequence (Q01973 30-406) above
Experimental: Purified phage antibodies were first diluted serially in PBST buffer, and tested for binding to a ROR1-coated plate. The dilution that gave 50-80% saturating signal was used in the solution binding assay in which phage were first incubated with increasing concentration of ROR1 for one to two hours, and then transferred to a ROR1-coated plate for 10-15 minutes to capture the unbound phage.

Binder | koff [1] | kon [1] | Kd [2] | koff [2] | kon [2] | Kd [3] | binding result (mouse ROR1-ECD) | binding result (human ROR2-ECD) | IC50 [4]
B1 | 0.0072 s⁻¹ | 1.1e+06 M⁻¹ s⁻¹ | 6.6 nM | 0.011 s⁻¹ | 1.7e+06 M⁻¹ s⁻¹ | 6.4 nM | – | – | –
B2 | – | – | – | – | – | – | binds | no binding | 27.9 nM
B3 | – | – | – | – | – | – | – | no binding | 0.23 nM
B4 | 0.00058 s⁻¹ | 760000 M⁻¹ s⁻¹ | 2.2 nM | 0.0013 s⁻¹ | 600000 M⁻¹ s⁻¹ | 0.8 nM | – | – | –
B5 | 0.00023 s⁻¹ | 1.9e+06 M⁻¹ s⁻¹ | 0.4 nM | 0.00069 s⁻¹ | 1.6e+06 M⁻¹ s⁻¹ | 0.1 nM | – | – | –
B6 | – | – | – | – | – | – | binds | no binding | 8.05 nM
B7 | 0.021 s⁻¹ | 1.4e+06 M⁻¹ s⁻¹ | 27.6 nM | 0.017 s⁻¹ | 630000 M⁻¹ s⁻¹ | 15.3 nM | – | – | –
B8 | – | – | – | – | – | – | binds | no binding | 3.22 nM
B9 | – | – | – | – | – | – | – | no binding | 4.08 nM
B10 | 0.00076 s⁻¹ | 3.6e+06 M⁻¹ s⁻¹ | 0.3 nM | 0.0016 s⁻¹ | 4.6e+06 M⁻¹ s⁻¹ | 0.2 nM | – | – | –
B11 | – | – | – | – | – | – | no binding | no binding | 0.62 nM
B12 | 0.0051 s⁻¹ | 3.1e+06 M⁻¹ s⁻¹ | 2.4 nM | 0.0059 s⁻¹ | 2.5e+06 M⁻¹ s⁻¹ | 1.7 nM | – | – | –
B13 | 0.018 s⁻¹ | 5.1e+06 M⁻¹ s⁻¹ | 5.4 nM | 0.019 s⁻¹ | 3.6e+06 M⁻¹ s⁻¹ | 3.5 nM | – | – | –
B14 | – | – | – | – | – | – | binds | no binding | 0.11 nM
B15 | 0.00063 s⁻¹ | 680000 M⁻¹ s⁻¹ | 2.8 nM | 0.0017 s⁻¹ | 590000 M⁻¹ s⁻¹ | 0.9 nM | – | – | –
B16 | 0.0011 s⁻¹ | 940000 M⁻¹ s⁻¹ | 1.5 nM | 0.0016 s⁻¹ | 1.1e+06 M⁻¹ s⁻¹ | 1.1 nM | – | – | –
